The values below come from the supplement of paper PMC5998384.

The test system of series [1] is HeLa Kyoto. Briefly: solubility in G1/S (NP-40 vs SDS abundance) (log2 ratio); higher = more soluble. The settings on record: cell cycle stage: G1/S.
In series [2] the test system is HeLa Kyoto. Briefly: solubility change mitosis vs G1/S (difference of NP-40 vs SDS log2 ratios) (log2 ratio difference); higher = more soluble in mitosis.
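Wherever solubility change mitosis vs G1/S (difference of NP-40 vs SDS log2 ratios) is given: synchronized HeLa Kyoto cells (double thymidine block for G1/S, nocodazole release for mitosis), protein amounts in NP-40 versus SDS lysates quantified by mass spectrometry, three biological replicates.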
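Wherever solubility in G1/S (NP-40 vs SDS abundance) is given: HeLa Kyoto cells arrested at G1/S by double thymidine block, proteins quantified by TMT10plex mass spectrometry in mild NP-40 versus SDS extracts, three biological replicates.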

For MAP3K1, the “solubility in G1/S (log2)” value with HeLa Kyoto [1] was -0.0921. Moreover, the “solubility change mitosis (log2)” value in the series on HeLa Kyoto [2] was -0.131.

As to “MAPALLLIPAALASFILAFGTGVEFVRFTSLRPLLGGIPESGGPDARQGWLAALQDRSILAPLAWDLGLLLLFVGQHSLMAAERVKAWTSRYFGVLQRSLYVACTALALQLVMRYWEPIPKGPVLWEARAEPWATWVPLLCFVLHVISWLLIFSILLVFDYAELMGLKQVYYHVLGLGEPLALKSPRALRLFSHLRHPVCVELLTVLWVVPTLGTDRLLLAFLLTLYLGLAHGLDQQDLRYLRAQLQRKLHLLSRPQDGEAE [NRM]”, in the series with HeLa Kyoto [1], the “solubility in G1/S (log2)” value is -0.275. In addition, in the series on HeLa Kyoto [2], the “solubility change mitosis (log2)” value is 0.167.

As to “MAPDPWFSTYDSTCQIAQEIAEKIQQRNQYERKGEKAPKLTVTIRALLQNLKEKIALLKDLLLRAVSTHQITQLEGDRRQNLLDDLVTRERLLLASFKNEGAEPDLIRSSLMSEEAKRGAPNPWLFEEPEETRGLGFDEIRQQQQKIIQEQDAGLDALSSIISRQKQMGQEIGNELDEQNEIIDDLANLVENTDEKLRNETRRVNMVDRKSASCGMIMVILLLLVAIVVVAVWPTN [STX8]”, in the series with HeLa Kyoto [1], the “solubility in G1/S (log2)” value turned out to be 0.624. In the series with HeLa Kyoto [2], the “solubility change mitosis (log2)” value is -0.0243.

“MAPVRRSAKWRPGGIEARGEGVSTVGYRNKNVRQKTWRPNHPQAFVGSVREGQGFAFRRKLKIQQSYKKLLRKEKKAQTSLESQFTDRYPDNLKHLYLAEEERHRKQARKVDHPLSEQVHQPLLEEQCSIDEPLFEDQCSFDQPQPEEQCIKTVNSFTIPKKNKKKTSNQKAQEEYEQIQAKRAAKKQEFERRKQEREEAQRQYKKKKMEVFKILNKKTKKGQPNLNVQMEYLLQKIQEKC [CCDC59]”: the “solubility in G1/S (log2)” value in the series with HeLa Kyoto [1] was -0.512. The “solubility change mitosis (log2)” value with HeLa Kyoto [2] was 0.278.

“MARLTKRRQADTKAIQHLWAAIEIIRNQKQIANIDRITKYMSRVHGMHPKETTRQLSLAVKDGLIVETLTVGCKGSKAGIEQEGYWLPGDEIDWETENHDWYCFECHLPGEVLICDLCFRVYHSKCLSDEFRLRDSSSPWQCPVCRSIKKKNTNKQEMGTYLRFIVSRMKERAIDLNKKGKDNKHPMYRRLVHSAVDVPTIQEKVNEGKYRSYEEFKADAQLLLHNTVIFYGADSEQADIARMLYKDTCHELDELQLCKNCFYLSNARPDNWFCYPCIPNHELVWAKMKGFGFWPAKVMQKEDNQVDVRFFGHHHQRAWIPSENIQDITVNIHRLHVKRSMGWKKACDELELHQRFLREGRFWKSKNEDRGEEEAESSISSTSNEQLKVTQEPRAKKGRRNQSVEPKKEEPEPETEAVSSSQEIPTMPQPIEKVSVSTQTKKLSASSPRMLHRSTQTTNDGVCQSMCHDKYTKIFNDFKDRMKSDHKRETERVVREALEKLRSEMEEEKRQAVNKAVANMQGEMDRKCKQVKEKCKEEFVEEIKKLATQHKQLISQTKKKQWCYNCEEEAMYHCCWNTSYCSIKCQQEHWHAEHKRTCRRKR [ZMYND11]”: the “solubility in G1/S (log2)” value in the series with HeLa Kyoto [1] was -2.1. Further, the “solubility change mitosis (log2)” value in the series on HeLa Kyoto [2] stood at 0.83.

“MARTLEPLAKKIFKGVLVAELVGVFGAYFLFSKMHTSQDFRQTMSKKYPFILEVYYKSTEKSGMYGIRELDQKTWLNSKN [CEBPZOS]”: in the series on HeLa Kyoto [1], the “solubility in G1/S (log2)” value was -0.306. Moreover, in the series with HeLa Kyoto [2], the “solubility change mitosis (log2)” value is -0.012.

“MASASARGNQDKDAHFPPPSKQSLLFCPKSKLHIHRAEISKIMRECQEESFWKRALPFSLVSMLVTQGLVYQGYLAANSRFGSLPKVALAGLLGFGLGKVSYIGVCQSKFHFFEDQLRGAGFGPQHNRHCLLTCEECKIKHGLSEKGDSQPSAS [OCIAD2]”: the “solubility in G1/S (log2)” value in the series with HeLa Kyoto [1] was 0.0856. For the same substance, the “solubility change mitosis (log2)” value with HeLa Kyoto [2] is -0.0442.

Regarding “MASKRKSTTPCMIPVKTVVLQDASMEAQPAETLPEGPQQDLPPEASAASSEAAQNPSSTDGSTLANGHRSTLDGYLYSCKYCDFRSHDMTQFVGHMNSEHTDFNKDPTFVCSGCSFLAKTPEGLSLHNATCHSGEASFVWNVAKPDNHVVVEQSIPESTSTPDLAGEPSAEGADGQAEIIITKTPIMKIMKGKAEAKKIHTLKENVPSQPVGEALPKLSTGEMEVREGDHSFINGAVPVSQASASSAKNPHAANGPLIGTVPVLPAGIAQFLSLQQQPPVHAQHHVHQPLPTAKALPKVMIPLSSIPTYNAAMDSNSFLKNSFHKFPYPTKAELCYLTVVTKYPEEQLKIWFTAQRLKQGISWSPEEIEDARKKMFNTVIQSVPQPTITVLNTPLVASAGNVQHLIQAALPGHVVGQPEGTGGGLLVTQPLMANGLQATSSPLPLTVTSVPKQPGVAPINTVCSNTTSAVKVVNAAQSLLTACPSITSQAFLDASIYKNKKSHEQLSALKGSFCRNQFPGQSEVEHLTKVTGLSTREVRKWFSDRRYHCRNLKGSRAMIPGDHSSIIIDSVPEVSFSPSSKVPEVTCIPTTATLATHPSAKRQSWHQTPDFTPTKYKERAPEQLRALESSFAQNPLPLDEELDRLRSETKMTRREIDSWFSERRKKVNAEETKKAEENASQEEEEAAEDEGGEEDLASELRVSGENGSLEMPSSHILAERKVSPIKINLKNLRVTEANGRNEIPGLGACDPEDDESNKLAEQLPGKVSCKKTAQQRHLLRQLFVQTQWPSNQDYDSIMAQTGLPRPEVVRWFGDSRYALKNGQLKWYEDYKRGNFPPGLLVIAPGNRELLQDYYMTHKMLYEEDLQNLCDKTQMSSQQVKQWFAEKMGEETRAVADTGSEDQGPGTGELTAVHKGMGDTYSEVSENSESWEPRVPEASSEPFDTSSPQAGRQLETD [ZHX3]”, the “solubility in G1/S (log2)” value in the series with HeLa Kyoto [1] stood at 0.105. In addition, the “solubility change mitosis (log2)” value in the series with HeLa Kyoto [2] was -0.0607.

Turning to “MASNFKKANMASSSQRKRMSPKPELTEEQKQEIREAFDLFDADGTGTIDVKELKVAMRALGFEPKKEEIKKMISEIDKEGTGKMNFGDFLTVMTQKMSEKDTKEEILKAFKLFDDDETGKISFKNLKRVAKELGENLTDEELQEMIDEADRDGDGEVSEQEFLRIMKKTSLY [CETN2]”, in the series on HeLa Kyoto [1], the “solubility in G1/S (log2)” value turned out to be 0.117. Also, the “solubility change mitosis (log2)” value in the series with HeLa Kyoto [2] was 0.68.

As for “MASPEPRRGGDGAAQAARKTRVEANSPLPKNSGSLNEAEALNPEVTLSSEGSLNLEDILYLEDTGDLDETLYVQETEKAEEALYIEEAMQPDEALHVEEPGNPEETVCVEETTEPDRIQFVEGPVEPGKPTSPEHVVYEGETVTRAEKSNPEESLRAEQSPSMEENLSIEDLELLEGRFQQCVQAVAQLEEERDQLIHELVLLREPALQEVQQVHQDILAAYKLHAQAELERDGLREEIRLVKQKLFKVTKECVAYQYQLECRQQDVAQFADFREVLTTRATQLSEELAQLRDAYQKQKEQLRQQLEAPPSQRDGHFLQESRRLSAQFENLMAESRQDLEEEYEPQFLRLLERKEAGTKALQRTQAEIQEMKEALRPLQAEARQLRLQNRNLEDQIALVRQKRDEEVQQYREQLEEMEERQRQLRNGVQLQQQKNKEMEQLRLSLAEELSTYKAMLLPKSLEQADAPTSQAGGMETQSQGAV [SYNC]”, the “solubility in G1/S (log2)” value in the series on HeLa Kyoto [1] was 0.502. Also, the “solubility change mitosis (log2)” value in the series with HeLa Kyoto [2] is 0.0968.

In the case of “MASRWQNMGTSVRRRSLQHQEQLEDSKELQPVVSHQETSVGALGSLCRQFQRRLPLRAVNLNLRAGPSWKRLETPEPGQQGLQAAARSAKSALGAVSQRIQESCQSGTKWLVETQVKARRRKRGAQKGSGSPTHSLSQKSTRLSGAAPAHSAADPWEKEHHRLSVRMGSHAHPLRRSRREAAFRSPYSSTEPLCSPSESDSDLEPVGAGIQHLQKLSQELDEAIMAEERKQALSDRQGFILKDVYASP [FAM64A]”, the “solubility in G1/S (log2)” value with HeLa Kyoto [1] amounted to 0.000622. In the series on HeLa Kyoto [2], the “solubility change mitosis (log2)” value amounted to 0.481.

As to “MASSDLEQLCSHVNEKIGNIKKTLSLRNCGQEPTLKTVLNKIGDEIIVINELLNKLELEIQYQEQTNNSLKELCESLEEDYKDIEHLKENVPSHLPQVTVTQSCVKGSDLDPEEPIKVEEPEPVKKPPKEQRSIKEMPFITCDEFNGVPSYMKSRLTYNQINDVIKEINKAVISKYKILHQPKKSMNSVTRNLYHRFIDEETKDTKGRYFIVEADIKEFTTLKADKKFHVLLNILRHCRRLSEVRGGGLTRYVIT [SKA1]”, the “solubility in G1/S (log2)” value with HeLa Kyoto [1] amounted to 0.713. For the same substance, the “solubility change mitosis (log2)” value with HeLa Kyoto [2] was -0.0548.

Turning to “MASSEVARHLLFQSHMATKTTCMSSQGSDDEQIKRENIRSLTMSGHVGFESLPDQLVNRSIQQGFCFNILCVGETGIGKSTLIDTLFNTNFEDYESSHFCPNVKLKAQTYELQESNVQLKLTIVNTVGFGDQINKEESYQPIVDYIDAQFEAYLQEELKIKRSLFTYHDSRIHVCLYFISPTGHSLKTLDLLTMKNLDSKVNIIPVIAKADTVSKTELQKFKIKLMSELVSNGVQIYQFPTDDDTIAKVNAAMNGQLPFAVVGSMDEVKVGNKMVKARQYPWGVVQVENENHCDFVKLREMLICTNMEDLREQTHTRHYELYRRCKLEEMGFTDVGPENKPVSVQETYEAKRHEFHGERQRKEEEMKQMFVQRVKEKEAILKEAERELQAKFEHLKRLHQEERMKLEEKRRLLEEEIIAFSKKKATSEIFHSQSFLATGSNLRKDKDRKNSNFL [SEPT10]”, in the series on HeLa Kyoto [1], the “solubility in G1/S (log2)” value is -0.132. The “solubility change mitosis (log2)” value with HeLa Kyoto [2] is -0.0981.

Take “MASSSGSSPRPAPDENEFPFGCPPTVCQDPKEPRALCCAGCLSENPRNGEDQICPKCRGEDLQSISPGSRLRTQEKAHPEVAEAGIGCPFAGVGCSFKGSPQSVQEHEVTSQTSHLNLLLGFMKQWKARLGCGLESGPMALEQNLSDLQLQAAVEVAGDLEVDCYRAPCSESQEELALQHFMKEKLLAELEGKLRVFENIVAVLNKEVEASHLALATSIHQSQLDRERILSLEQRVVELQQTLAQKDQALGKLEQSLRLMEEASFDGTFLWKITNVTRRCHESACGRTVSLFSPAFYTAKYGYKLCLRLYLNGDGTGKRTHLSLFIVIMRGEYDALLPWPFRNKVTFMLLDQNNREHAIDAFRPDLSSASFQRPQSETNVASGCPLFFPLSKLQSPKHAYVKDDTMFLKCIVETST [TRAF1]”: the “solubility in G1/S (log2)” value in the series on HeLa Kyoto [1] was 0.254. In addition, the “solubility change mitosis (log2)” value with HeLa Kyoto [2] is -0.305.

On to “MATFVSELEAAKKNLSEALGDNVKQYWANLKLWFKQKISKEEFDLEAHRLLTQDNVHSHNDFLLAILTRCQILVSTPDGAGSLPWPGGSAAKPGKPKGKKKLSSVRQKFDHRFQPQNPLSGAQQFVAKDPQDDDDLKLCSHTMMLPTRGQLEGRMIVTAYEHGLDNVTEEAVSAVVYAVENHLKDILTSVVSRRKAYRLRDGHFKYAFGSNVTPQPYLKNSVVAYNNLIESPPAFTAPCAGQNPASHPPPDDAEQQAALLLACSGDTLPASLPPVNMYDLFEALQVHREVIPTHTVYALNIERIITKLWHPNHEELQQDKVHRQRLAAKEGLLLC [TADA1]”, for which the “solubility in G1/S (log2)” value with HeLa Kyoto [1] is 0.289. The “solubility change mitosis (log2)” value in the series with HeLa Kyoto [2] was -0.0314.

Take “MATPGPVIPEVPFEPSKPPVIEGLSPTVYRNPESFKEKFVRKTRENPVVPIGCLATAAALTYGLYSFHRGNSQRSQLMMRTRIAAQGFTVAAILLGLAVTAMKSRP [HIGD2A]”: the “solubility in G1/S (log2)” value with HeLa Kyoto [1] is -0.399. Also, in the series on HeLa Kyoto [2], the “solubility change mitosis (log2)” value was determined as 0.482.
